# Laboratory results from paper PMC3291989.
# Biological target: catalase (PktA) from Psychrobacter piscatorii T-3 (Psychrobacter piscatorii T-3)
# Assay: SEC; gel filtration on two Protein PAK 300 columns, 0.1 M potassium phosphate buffer (pH 7.0), against mass standards; native mass compared with the subunit mass by SDS-PAGE
substance,measurement,value
catalase (PktA) from Psychrobacter piscatorii T-3 (enzyme),stoichiometry N,4
